Paper PMC9557913 (Molecular cell, 2022)

T1: MCU, Q8NE86
T1 chain: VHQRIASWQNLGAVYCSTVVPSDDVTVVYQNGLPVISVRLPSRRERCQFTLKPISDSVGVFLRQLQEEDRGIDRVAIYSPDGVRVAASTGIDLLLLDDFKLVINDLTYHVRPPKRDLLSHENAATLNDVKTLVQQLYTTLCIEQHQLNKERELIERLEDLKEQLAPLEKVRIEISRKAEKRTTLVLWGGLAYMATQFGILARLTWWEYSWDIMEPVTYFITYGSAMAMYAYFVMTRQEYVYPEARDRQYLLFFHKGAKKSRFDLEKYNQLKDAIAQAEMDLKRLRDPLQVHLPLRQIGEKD


Legend:
SEC = target: the molecule itself; experiment: SEC
MCU, Q8NE86 = target: T1, MCU, Q8NE86; experiment: co-IP; conditions: remark: other sources report otherwise

| Binder | stoichiometry N (SEC) | fold co-precipitated with MCU, against MICU1-2D (MCU, Q8NE86) |
| --- | --- | --- |
| purified human MICU2 (MICU2-2ND) (natural protein, UniProt Q8IYU8 23-434, looked up) AVSRQAVRSPGPLAAAVAGAALAGAGAAWHHSRVSVAARDGSFTVSAQKNVEHGIIYIGKPSLRKQRFMQFSSLEHEGEYYMTPRDFLFSVMFEQMERKTSVKKLTKKDIEDTLSGIQTAGCGSTFFRDLGDKGLISYTEYLFLLTILTKPHSGFHVAFKMLDTDGNEMIEKREFFKLQKIISKQDDLMTVKTNETGYQEAIVKEPEINTTLQMRFFGKRGQRKLHYKEFRRFMENLQTEIQEMEFLQFSKGLSFMRKEDFAEWLLFFTNTENKDIYWKNVREKLSAGESISLDEFKSFCHFTTHLEDFAIAMQMFSLAHRPVRLAEFKRAVKVATGQELSNNILDTVFKIFDLDGDECLSHEEFLGVLKNRMHRGLWVPQHQSIQEYWKCVKKESIKGVKEVWKQAGKGLF | 2 |  |
| disulfide-connected MICU1-MICU1 homodimer (MICU1-1D), Q9BPX6 34-476 (complex, here or on the partner: intersubunit disulfide through C463) MMVAFLGASAVTASTGLLWKRAHAESPPCVDNLKSDIGDKGKNKDEGDVCNHEKKTADLAPHPEEKKKKRSGFRDRKVMEYENRIRAYSTPDKIFRYFATLKVISEPGEAEVFMTPEDFVRSITPNEKQPEHLGLDQYIIKRFDGKKISQEREKFADEGSIFYTLGECGLISFSDYIFLTTVLSTPQRNFEIAFKMFDLNGDGEVDMEEFEQVQSIIRSQTSMGMRHRDRPTTGNTLKSGLCSALTTYFFGADLKGKLTIKNFLEFQRKLQHDVLKLEFERHDPVDGRITERQFGGMLLAYSGVQSKKLTAMQRQLKKHFKEGKGLTFQEVENFFTFLKNINDVDTALSFYHMAGASLDKVTMQQVARTVAKVELSDHVCDVVFALFDCDGNGELSNKEFVSIMKQRLMRGLEKPKDMGFTRLMQAMWKCAQETAWDFALPKQ |  | 2 fold |
| purified MBP-fused human MICU1 (MICU1-1ND) (natural protein, UniProt Q9BPX6 34-476, looked up) MMVAFLGASAVTASTGLLWKRAHAESPPCVDNLKSDIGDKGKNKDEGDVCNHEKKTADLAPHPEEKKKKRSGFRDRKVMEYENRIRAYSTPDKIFRYFATLKVISEPGEAEVFMTPEDFVRSITPNEKQPEHLGLDQYIIKRFDGKKISQEREKFADEGSIFYTLGECGLISFSDYIFLTTVLSTPQRNFEIAFKMFDLNGDGEVDMEEFEQVQSIIRSQTSMGMRHRDRPTTGNTLKSGLCSALTTYFFGADLKGKLTIKNFLEFQRKLQHDVLKLEFERHDPVDGRITERQFGGMLLAYSGVQSKKLTAMQRQLKKHFKEGKGLTFQEVENFFTFLKNINDVDTALSFYHMAGASLDKVTMQQVARTVAKVELSDHVCDVVFALFDCDGNGELSNKEFVSIMKQRLMRGLEKPKDMGFTRLMQAMWKCAQETAWDFALPKQ | 2 |  |
